Source: patent US6949366 (Amgen, dated 2005)
Values belong to the binder of their own block, whether it stands above or below them.

Legend:
[1] = target: T1, soluble rat elk/Fc fusion protein (rat; human, UniProt P09759 18-540; P01857 99-330 = IgG part, limits assumed); experiment: indirect Scatchard binding: elk/Fc titrated on CV1-EBNA-1 cells expressing elk-L, detected with 125I mouse anti-human IgG
T1 construct: extracellular domain;domain: Fc region; The junction between elk and Fc is not described

[2] = target: T1, soluble rat elk/Fc fusion protein; experiment: indirect Scatchard binding: elk/Fc titrated on CV1-EBNA-1 cells expressing hek-L C6, detected with 125I mouse anti-human IgG; biphasic, first component
[3] = target: T1, soluble rat elk/Fc fusion protein; experiment: indirect Scatchard binding: elk/Fc titrated on CV1-EBNA-1 cells expressing hek-L C6, detected with 125I mouse anti-human IgG; biphasic, second component
[4] = target: T1, soluble rat elk/Fc fusion protein; experiment: indirect Scatchard binding: elk/Fc titrated on CV1-EBNA-1 cells expressing B61, detected with 125I mouse anti-human IgG; biphasic, second component
[5] = target: T1, soluble rat elk/Fc fusion protein; experiment: indirect Scatchard binding: elk/Fc titrated on CV1-EBNA-1 cells expressing B61; biphasic, first component as the text prints it (differs from the table's cell)
[6] = target: T1, soluble rat elk/Fc fusion protein; experiment: indirect Scatchard binding: elk/Fc titrated on CV1-EBNA-1 cells expressing B61, detected with 125I mouse anti-human IgG; biphasic, first component (the cell prints 23, the text at paragraph 137 prints 2.3)
[7] = target: T1, soluble rat elk/Fc fusion protein; experiment: indirect Scatchard binding: elk/Fc titrated on CV1-EBNA-1 cells expressing hek-L A2, detected with 125I mouse anti-human IgG; biphasic, first component
[8] = target: T1, soluble rat elk/Fc fusion protein; experiment: indirect Scatchard binding: elk/Fc titrated on CV1-EBNA-1 cells expressing hek-L A2, detected with 125I mouse anti-human IgG; biphasic, second component

T1 sequence (P09759 other isoform, or with tags, fused parts or gaps limits assumed): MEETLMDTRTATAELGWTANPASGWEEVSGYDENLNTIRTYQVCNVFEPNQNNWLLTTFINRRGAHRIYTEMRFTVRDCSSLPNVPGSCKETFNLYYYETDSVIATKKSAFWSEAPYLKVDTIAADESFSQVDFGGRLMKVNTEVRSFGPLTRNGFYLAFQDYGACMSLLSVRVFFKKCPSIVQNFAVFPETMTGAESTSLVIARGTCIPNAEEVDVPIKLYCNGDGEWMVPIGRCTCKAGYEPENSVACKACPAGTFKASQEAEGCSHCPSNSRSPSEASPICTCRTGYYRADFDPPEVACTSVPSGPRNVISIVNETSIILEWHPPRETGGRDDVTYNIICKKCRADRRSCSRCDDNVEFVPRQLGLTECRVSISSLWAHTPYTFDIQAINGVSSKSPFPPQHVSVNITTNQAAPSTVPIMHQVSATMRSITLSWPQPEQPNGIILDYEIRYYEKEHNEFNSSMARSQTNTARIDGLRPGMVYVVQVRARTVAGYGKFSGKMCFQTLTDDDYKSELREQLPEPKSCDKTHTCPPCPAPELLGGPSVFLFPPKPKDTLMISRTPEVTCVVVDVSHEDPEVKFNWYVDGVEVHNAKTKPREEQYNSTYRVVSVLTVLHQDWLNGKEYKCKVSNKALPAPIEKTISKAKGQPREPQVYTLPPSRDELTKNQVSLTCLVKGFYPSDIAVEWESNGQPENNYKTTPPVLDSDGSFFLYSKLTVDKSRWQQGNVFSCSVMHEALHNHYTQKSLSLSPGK

- Ka [1]: 1.08e+09 M⁻¹
B1: human elk ligand (ligand, UniProt P98172 28-346, looked up)
chain: LAKNLEPVSWSSLNPKFLSGKGLVIYPKIGDKLDIICPRAEAGRPYEYYKLYLVRPEQAAACSTVLDPNVLVTCNRPEQEIRFTIKFQEFSPNYMGLEFKKHHDYYITSTSNGSLEGLENREGGVCRTRTMKIIMKVGQDPNAVTPEQLTTSRPSKEADNTVKMATQAPGSRGSLGDSDGKHETVNQEEKSGPGASGGSSGDPDGFFNSKVALFAAVGAGCVIFLLIIIFLTVLLLKLRKRHRKHTQQRAAALSLSTLASPKGGSGTAGTEPSDIIIPLRTTENNYCPHYEKVSGDYGHPVYIVQEMPPQSPANIYYKV
notes: whole, on cells

- Ka [2]: 1.3e+08 M⁻¹
- Ka [3]: 5.4e+07 M⁻¹
B2: human hek ligand encoded by clone C6 (ligand)
chain: GSSLRHVVYWNSSNPRLLRGDAVVELGLNDYLDIVCPHYEGPGPPEGPETFALYMVDWPGYESCQAEGPRAYKRWVCSLPFGHVQFSEKIQRFTPFSLGFEFLPGETYYYISVPTPESSGQCLRLQVSVCCKERKSESAHPVGSPGES
modifications: GPI anchor at the C-terminus after cleavage (likely on Ser 148 in the filing's numbering; site not determined)
notes: Expressed from the full-length clone C6 cDNA in pDC410 on CV1-EBNA-1 cells and held on the membrane by a GPI anchor; also called hek-L C6; hek ligand C6

- Ka [4]: 7e+07 M⁻¹
- Ka [5]: 2.3e+08 M⁻¹
- Ka [6]: 2.3e+09 M⁻¹
B3: human B61 (ligand, UniProt P20827 19-182, looked up)
chain: DRHTVFWNSSNPKFRNEDYTIHVQLNDYVDIICPHYEDHSVADAAMEQYILYLVEHEEYQLCQPQSKDQVRWQCNRPSAKHGPEKLSEKFQRFTPFTLGKEFKEGHSYYYISKPIHQHEDRCLRLKVTVSGKITHSPQAHDNPQEKRLAADDPEVRVLHSIGHS
notes: whole, on cells

- Ka [7]: 2.7e+08 M⁻¹
- Ka [8]: 3.5e+07 M⁻¹
B4: human hek ligand encoded by clone A2 (ligand)
chain: LLAQGPGGALGNRHAVYWNSSNQHLRREGYTVQVNVNDYLDIYCPHYNSSGVGPGAGPGPGGGAEQYVLYMVSRNGYRTCNASQGFKRWECNRPHAPHSPIKFSEKFQRYSAFSLGYEFHAGHEYYYISTPTHNLHWKCLRMKVFVCCASTSHSGEKPVPTLPQFTMGPNVKINVLEDFEGENPQVPKLEKSIS
modifications: GPI anchor at the C-terminus after cleavage (likely on Ser 194 in the filing's numbering; site not determined)
notes: Expressed from the full-length clone A2 cDNA in pDC410 on CV1-EBNA-1 cells and held on the membrane by a GPI anchor; also called hek-L A2; hek ligand A2
